Measured values as given in patent publication US8734803.
Positions count from the first letter of the chain named.

B1: plant-produced humanized 2B9 antibody G2K3 (antibody, V domains shown)
VH: QVQLVQSGSELKKPGASVKMSCKAAGYTFTNYWIGWVRQAPGQGLEWIGDIYPENDFSNYNEKFKDRATLTADTSTRTAYMELSSLRSEDTAVYYCVRANEGWYLDVWGQGTTVTVSS
VL: DIQMTQSPSSLSASVGDRVTITCRASENIYSYLAWYQQKPGKAPKLLVYFAKTLAEGVPSRFSGSGSGTEFTLTISSLQPDDFANYYCQHHYGTPYTFGQGTKLEIKR
B2: plant-produced humanized 2B9 antibody G5K4 (antibody, V domains shown)
VH: B1 VH with M20V, A68V, L70I, R77S
VL: B1 VL with N85T
B3: plant-produced humanized 2B9 antibody G2K4 (antibody, V domains shown)
VH: B1 VH
VL: B1 VL with N85T
B4: plant-produced humanized 2B9 antibody G5K3 (antibody, V domains shown)
VH: B1 VH with M20V, A68V, L70I, R77S
VL: B1 VL

What follows are binders tested against NA (neuraminidase) used in the NA activity inhibition experiments of Example 9 (assay: cell-based or functional assay).

Binder | IC50, inhibition of NA activity
B1 | 0.5 µg/mL
B2 | 0.21 µg/mL
B3 | 1.16 µg/mL
B4 | 0.45 µg/mL
